The DeepSol protein solubility set

assay: soluble on expression in E. coli; label from the status in PepcDB or PDB records

Row | Sequence | soluble on expression in E. coli
1 | MTAAPYNYSYIFKYIIIGDMGVGKSCLLHQFTEKKFMADCPHTIGVEFGTRIIEVSGQKIKLQIWDTAGQERFRAVTRSYYRGAAGALMVYDITRRSTYNHLSSWLADAKSLTNPNTAIFLIGNKADLEDQRDVPYEEAKAFAEENGLTFLECSAKTGSNVEDAFLETAKQIYQNIQDGSLDLNAADTGVQPKQNLPRAAENNGKKDCNC | not soluble
2 | MTADALVRAPAEPTHPIREWTTVFVGTGDEHLVVAEGPKHRDWRKIGNVFREPARTAVLGLIRTCIADRELKIETFEGKVADALGPVAAAHPILTPDKSVVVAVQIWSGDPKKNPPDRPNVGAWEWVLSSEDNPPPPQLQLDPGAIELIGMSTRHQDRSVFGPADLYTRSARLSDTLRHVRQIRDCQVKDRFDGTFTIRAEADVTRELRYAERCVEGPAGRRVRGICWDAGTDEALVHESMLDAWLSTMLASTSGMYIAVGDLSYQYPYWLKWVTEHVPGLGHGVSTGQTFALHEEDWPKIIEWVQQVRKGPVSGTVRARRGGGGWLKAEFRGFLLDPLVSDSIGVAVISPEIETIPDETS | not soluble
3 | MTAFLPPNLLALFEARPPVQYLPPCQDLLVDKNAKRAPMTGVAQYIQLFEDPKDTPAKIPVVTKAEAKEEKRRQKDELLAYKVEQGIATWNPAENPRASEDPYRTLFVGRINYETSESKLRREFEAYGKIKKLTMVHDEAGKPRGYAFIEYSDKAEMHTAYKKADGIKVDGKRLVVDYERGRTQKTWLPRRLGGGKGDTRKTREAKSVIEEREIASGFGGGYEDRDRERSGSRDRRQDSYRNGGGNDRDRRESSGGFRDNRGGGGGFGGGGRDRFNDRSGGGGYGGDRDRGGDRGGDRGGSRYSTGGGSGGGYRSGGGSSGGGGGGRYGDRR | not soluble
4 | MTAFQSLKPSTLSREDFVKAFADIYEHSPWVAEKAYELGLDASVDQIETLHQRMSDILLSADHASQLALINAHPDLAGKAAVQGQLTEASTNEQAGAGIHQCTAEEFQRFTELNDAYKAKFKFPFIMAVKGSNRHQILAAFETRIHNSVDTEFKCALAEINKIALFRLLTLLEHHHHHH | not soluble
5 | MTAPKVFVSHASEDKARFVVDFARRLRENGVDAWLDQWEMKPGDSLVDKIFEEGLREARAVVIVLSATSVRKPWVREELNASVVNRISRGTKLIPVVIDDCDVPEALRSTVLEHHHHHH | not soluble
6 | MTAPRKTRTEVITTVLNLERTLAQTVLGINDENLRVLDNQIDCDIHVRGTHVELTGPAHEVSRASKIFEELQAIARRGHVISPETVKNVISMINVETPQTVSEILTGDILARRGKVIRPKTLGQKHYVDAIDTNTIVFGLGPAGSGKTYLAMAKAVQALQSKQVSRIILTRPAVEAGEKLGFLPGTLNEKIDPYLRPLHDALRDMVEPEVIPKLMEAGIVEVAPLAYMRGRTLNDAFVILDEAQNTTPAQMKMFLTRLGFGSKMVVTGDITQVDLPGGQKSGLRLVRHILRGVDDVHFSELTSSDVVRHQLVGHIVDAYEDYEEREARELKRKRQETRP | not soluble
7 | MTAQSYHPMIKEFPEFYGPLTCPGQFLALLILEFGLNFAEIQKLKWENFNWNFKYLTIEKAGIKRVLPIREKFAIRVKAINNADELFAKSRQFLYTELKKFTNYSSKEIREQYILHQVKAGKSIYELATLLGLTTITTLEKYYRLEHHHHHH | soluble
8 | MTAQTLYDKLWNSHVVREEEDGTVLLYIDRHLVHEVTSPQAFEGLKMAGRKLWRIDSVVSTADHNTPTGDWDKGIQDPISKLQVDTLDKNIKEFGALAYFPFMDKGQGIVHVMGPEQGATLPGMTVVCGDSHTSTHGAFGALAHGIGTSEVEHTMATQCITAKKSKSMLISVDGKLKAGVTAKDVALYIIGQIGTAGGTGYAIEFGGEAIRSLSMESRMTLCNMAIEAGARSGMVAVDQTTIDYVKDKPFAPEGEAWDKAVEYWRTLVSDEGAVFDKEYRFNAEDIEPQVTWGTSPEMVLDISSKVPNPAEETDPVKRSGMERALEYMGLEAGTPLNEIPVDIVFIGSCTNSRIEDLREAAAIAKDRKKAANVQRVLIVPGSGLVKEQAEKEGLDKIFIEAGFEWREPGCSMCLAMNADRLTPGQRCASTSNRNFEGRQGNGGRTHLVSPAMAAAAAVTGRFTDIRMMA | not soluble
9 | MTAVRDPFFPADQSIRASHNPIEVRELGMMDYQRAWDLQAELNKQRQHDEINDVILVLEHPSIYTAGKRTQPSDRPQNGLPVIDVDRGGRITWHGPGQLVMYPIIKLAEPIDVVDYVRRVEEALIHVIRTHGIPNAGRIDGRSGVWVPGKTPEEHRKVAALGIRIAGGVTMHGLALNCDNTVEFYDYIVPCGISDAGVTTMSQEVGNDVTTQSMTAPLLAALDDAFAGRLVVADHSFASAPDPTKIPRRP | not soluble
